Measurements reported in patent US20210130436A1 (published 2021).

Experiments:
[1] = target: T1, human PD-L1 (human, UniProt Q9NZQ7 19-290); test: flow cytometry, CHO cells stably expressing PD-L1
T1 construct: also called huPD-L1; CD274

[2] = target: T2, human CTLA-4 (human, UniProt P16410 36-223); test: flow cytometry, CHO cells stably expressing CTLA4
T2 construct: also called huCTLA4

[3] = target: human CD28 (human, UniProt P10747 19-220); test: flow cytometry, Jurkat cells (CD28)
[4] = target: T3, human PD-L1 (full-length, expressed on CHO cells) (human, UniProt Q9NZQ7 19-290); test: flow cytometry, MFI on CHO/huPD-L1 cells over MFI on Jurkat (CD28) cells, 33.3 nM
T3 construct: also called huPD-L1; CD274

[5] = target: T3, human PD-L1 (full-length, expressed on …); test: flow cytometry, CHO cells expressing huPD-L1, PE anti-human Fc
[6] = target: T4, CD28 (endogenously expressed on Jurkat/IL2 reporter cells) (human, UniProt P10747 19-220); test: flow cytometry, Jurkat/IL2 reporter cells (endogenous CD28), PE anti-human Fc
T4 construct: Endogenous CD28 of Jurkat cells; also called human CD28

[7] = target: T4, CD28 (endogenously expressed on …); test: flow cytometry MFI at 33.3 nM relative to WT CD80 ECD-Fc (R&D), Jurkat cells
[8] = target: T5, human CTLA4 (full-length, expressed on CHO cells) (human, UniProt P16410 36-223); test: flow cytometry MFI at 33.3 nM relative to WT CD80 ECD-Fc (R&D), CHO/huCTLA4 cells
T5 construct: also called huCTLA4

[9] = target: T3, human PD-L1 (full-length, expressed on …); test: flow cytometry MFI at 33.3 nM relative to WT CD80 ECD-Fc (R&D), CHO/huPD-L1 cells
[10] = target: T5, human CTLA4 (full-length, expressed on …); test: flow cytometry, CHO cells expressing huCTLA4, PE anti-human Fc
[11] = target: T6, human PD-L1 expressed on CHO cells (human, UniProt Q9NZQ7 19-290); test: flow cytometry, CHO cells stably expressing PD-L1, Fc fusion at 33.3 nM
T6 construct: whole, on cells; Target on CHO cells stably expressing PD-L1; also called huPD-L1

[12] = target: T7, human CTLA4 expressed on CHO cells (human, UniProt P16410 36-223); test: flow cytometry, CHO cells stably expressing CTLA4, Fc fusion at 33.3 nM
T7 construct: whole, on cells; Target on CHO cells stably expressing CTLA4; also called huCTLA4
T7 sequence (P16410 36-223): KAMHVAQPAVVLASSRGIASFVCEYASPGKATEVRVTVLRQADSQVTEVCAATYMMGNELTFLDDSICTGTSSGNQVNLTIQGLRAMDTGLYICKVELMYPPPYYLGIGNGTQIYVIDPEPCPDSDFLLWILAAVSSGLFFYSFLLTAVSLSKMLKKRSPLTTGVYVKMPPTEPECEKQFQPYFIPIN

T5 sequence (P16410 36-223): as above
T3 sequence (Q9NZQ7 19-290): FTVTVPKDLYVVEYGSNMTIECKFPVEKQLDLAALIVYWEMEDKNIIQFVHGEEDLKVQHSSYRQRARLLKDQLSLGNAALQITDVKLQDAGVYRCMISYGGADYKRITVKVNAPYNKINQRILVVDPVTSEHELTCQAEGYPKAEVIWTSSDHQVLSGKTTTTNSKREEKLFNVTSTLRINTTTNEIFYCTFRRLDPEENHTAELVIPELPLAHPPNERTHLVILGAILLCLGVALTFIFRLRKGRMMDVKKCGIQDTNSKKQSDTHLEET
T6 sequence (Q9NZQ7 19-290): as above
T2 sequence (P16410 36-223): as the sequence (P16410 36-223) above
T1 sequence (Q9NZQ7 19-290): as the sequence (Q9NZQ7 19-290) above

| Binder | MFI at 33.3 nM [1] [MFI] | MFI at 33.3 nM [2] [MFI] | MFI at 33.3 nM [3] [MFI] | Ratio of PDL1:CD28 [4] [ratio] | MFI at 33.3 nM [5] [MFI] | MFI at 33.3 nM [6] [MFI] | Fold change to WT [7] [fold] | Fold change to WT CD80 [8] [fold] | Fold change to WT [9] [fold] | MFI at 33.3 nM [10] [MFI] | MFI at 33.3 nM [11] [MFI] | MFI at 33.3 nM [12] [MFI] |
| --- | --- | --- | --- | --- | --- | --- | --- | --- | --- | --- | --- | --- |
| CD80 IgV-Fc T13R/Q33R/E35D/M38I/M47L/V68M/L85M/R94Q (Fc fusion, not shown: a dimerising Fc or GST) VIHVTKEVKEVARLSCGHNVSVEELAQTRIYWRKDKKIVLTMMSGDLNIWPEYKNRTIFDITNNLSIMILALRPSDEGTYECVVMKYEKDAFKQEHLAEVTLSVKAD | 20400 | 19100 | 15.2 |  |  |  |  |  |  |  |  |  |
| variant CD80 IgV-Fc Q33L/E35D/M47V/L85Q (Fc fusion, not shown: a dimerising Fc or GST) VIHVTKEVKEVATLSCGHNVSVEELAQTRIYWLKDKKMVLTMMSGDVNIWPEYKNRTIFDITNNLSIVILALRPSDEGTYECVVQKYEKDAFKREHLAEVTLSVKAD |  |  |  | 177 | 47400 | 268 | 0.04 | 0.42 | 5.97 | 75400 |  |  |
| variant CD80 IgV-Fc A26E/E35D/M43T/M47L/L85Q/R94Q (Fc fusion, not shown: a dimerising Fc or GST) VIHVTKEVKEVATLSCGHNVSVEELEQTRIYWQKDKKMVLTMTSGDLNIWPEYKNRTIFDITNNLSIVILALRPSDEGTYECVVQKYEKDAFKQEHLAEVTLSVKAD |  |  |  | 262 | 68100 | 260 | 0.03 | 1.56 | 8.57 | 278000 |  |  |
| CD80 E35D/M47V/V68M/K89N IgV-Fc (Fc fusion, not shown: small tags and cut ends; a dimerising Fc or GST) VIHVTKEVKEVATLSCGHNVSVEELAQTRIYWQKDKKMVLTMMSGDVNIWPEYKNRTIFDITNNLSIMILALRPSDEGTYECVVLKYENDAFKREHLAEVTLSVKAD |  |  |  |  |  |  |  |  |  |  | 21800 | 29500 |
| CD80 E35D/V68M/K89N IgV-Fc (Fc fusion, not shown: small tags and cut ends; a dimerising Fc or GST) VIHVTKEVKEVATLSCGHNVSVEELAQTRIYWQKDKKMVLTMMSGDMNIWPEYKNRTIFDITNNLSIMILALRPSDEGTYECVVLKYENDAFKREHLAEVTLSVKAD |  |  |  |  |  |  |  |  |  |  |  | 24800 |
| CD80 V68M/K89N IgV-Fc (Fc fusion, not shown: small tags and cut ends; a dimerising Fc or GST) VIHVTKEVKEVATLSCGHNVSVEELAQTRIYWQKEKKMVLTMMSGDMNIWPEYKNRTIFDITNNLSIMILALRPSDEGTYECVVLKYENDAFKREHLAEVTLSVKAD |  |  |  |  |  |  |  |  |  |  | 538 | 2330 |

Continued, values first:

| MFI at 33.3 nM [1] [MFI] | MFI at 33.3 nM [2] [MFI] | MFI at 33.3 nM [3] [MFI] | Ratio of PDL1:CD28 [4] [ratio] | MFI at 33.3 nM [5] [MFI] | MFI at 33.3 nM [6] [MFI] | Fold change to WT [7] [fold] | Fold change to WT CD80 [8] [fold] | Fold change to WT [9] [fold] | MFI at 33.3 nM [10] [MFI] | MFI at 33.3 nM [11] [MFI] | MFI at 33.3 nM [12] [MFI] | Binder |
| --- | --- | --- | --- | --- | --- | --- | --- | --- | --- | --- | --- | --- |
|  |  |  | 54 | 14600 | 273 | 0.04 | 1.52 | 1.84 | 271000 |  |  | variant CD80 IgV-Fc E7D/E35D/M47I/L97Q (Fc fusion, not shown: a dimerising Fc or GST) VIHVTKDVKEVATLSCGHNVSVEELAQTRIYWQKDKKMVLTMMSGDINIWPEYKNRTIFDITNNLSIVILALRPSDEGTYECVVLKYEKDAFKREHQAEVTLSVKAD |
|  |  |  | 276 | 76000 | 275 | 0.04 | 0.01 | 9.56 | 1280 |  |  | variant CD80 IgV-Fc A26E/Q33R/E35D/M47L/L85Q/K86E (Fc fusion, not shown: a dimerising Fc or GST, Fc fusions are described in general as dimers) VIHVTKEVKEVATLSCGHNVSVEELEQTRIYWRKDKKMVLTMMSGDLNIWPEYKNRTIFDITNNLSIVILALRPSDEGTYECVVQEYEKDAFKREHLAEVTLSVKAD |
|  |  |  | 104 | 44900 |  |  | 0.04 | 5.66 | 6390 |  |  | variant CD80 IgV-Fc Q33L/E35D/T41S/M43I (Fc fusion, not shown: a dimerising Fc or GST) VIHVTKEVKEVATLSCGHNVSVEELAQTRIYWLKDKKMVLSMISGDMNIWPEYKNRTIFDITNNLSIVILALRPSDEGTYECVVLKYEKDAFKREHLAEVTLSVKAD |
|  |  |  | 226 | 98100 |  |  | 2.09 | 12.3 | 374000 |  |  | variant CD80 IgV-Fc H18L/V22A/E35D/M47L/N48T/L85Q (Fc fusion, not shown: a dimerising Fc or GST) VIHVTKEVKEVATLSCGLNVSAEELAQTRIYWQKDKKMVLTMMSGDLTIWPEYKNRTIFDITNNLSIVILALRPSDEGTYECVVQKYEKDAFKREHLAEVTLSVKAD |
